Test: soluble fraction after stress (log2 fold change); higher = more stays soluble; pooled small domains, quantitative proteomics
Conditions: stress: pH 4
How it was run: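 Pooled custom libraries of small protein domains were subjected to pH 4 and measured by high-throughput quantitative proteomics. The log2 fold change in soluble amount per domain is reported, higher values meaning more remained soluble. This is used as a measure of aggregation propensity.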

Sequence	soluble fraction (log2)
HMTGVEAIERYLASGVIPGVGPVLAKRLVERFGARTLEVIEDSPRRLTQVPGIGRQKARQIHQALKAQRE	0.0508
HMDGIIIPDVSGKSYAEAVATLNEKGFKVEKGEDAGSSLAKDLVSYTNPAAGNRAKSGATISVFVSTGANA	-0.0718
HMGPSEVTLDNFVGKNYTDVVNDTSYQFTFKKEEKSDQTHAAGIIIAQSPKKGIKVKSNSTVTLTVSTG	0.216
HMEQVLDEEIIKSAVQKVIKDNPSAVSDYKAGKKTAFQFLIGKAMAELQGKGHPGKISELLEKE	0.257
HMKFLYQKAREEIISLIQDGEIKPSEKIMPERELSELLGYNRMTIKKAINSLVAEGVLMKKRGAGTFLLG	-0.45
HMKIELTDQQKSLVVDEWNKGEANPPSLLQLIRLAYPDQPHLDGRSKEGKAVKAFLATRDINPLA	-0.0382
HMGQLSDREALTVLAREALVELPRAAGDYRNGRTAALQSLVGRVMRKTAGRGNPALLQEIFRSLL	0.00453
HMGDIFTAEDAKERIDYSGVDGIMLARGIFGNPWLIRDIREYLEYGKILHPVTQLDRVNMAIEHTRKT	-0.25
HMSDGTVYGSDGVIKVNLPQSGMLRIYATDGTTLVNRWQAAGIDTISMPRGLYIVRFDNQVWKVVV	0.00982
HMKYSNDEVERDLYVRGVIYQIGDLVENKLDGTSGEVVRRGPNYVQYTDGENFYKAFLSALQEQK	-1.04
HMPVFYVTGNRVNFRAGPSTGDRVIGSLSQGAAVEVLGPTDDAWINIRDSDGRVGYMSAQFLSQ	-0.213
HMGQDLEAFLLKAVGQLDQGDGVTLDALLKVAVSNGGFVREVAEAKLDDMLDAGTLDEPRFGWFRVGAT	-1.68
HMKQAVESAEAIFEEIARIKKLSLVKSEAEEIARKTGLQKFTIASQLLKNQHAYEMDESEIASLWDKKI	-0.594
HMENEIFVPKVFMDWYNKVDKSIKVFKAFNLIEKETDPRLKEWVEDNQDEFAKIWLGQLLPVV	-0.35
HMDFDLIAIFEEQFARALSPIEINIIKEWKNSNYSDDMIVKALKEAVKSQVFNFRYIERILINWSQNG	-1.64
HMYEDIDSAYRILEINSTVSNQEIKNAYRRMAKKYHPDKVAHLGVEHQKGAEEKFKKVQEAYILIKKRRG	-0.146
HMQVSDVTTIRALVEEVLSSSPQQLAQYRAGKLSLKGYFVGQVMKKGKGQLNAAAVNNLLDEIL	0.36
HMGEPVNSPMPGTILRVEVTQGAAVKEGQLLVVLEAMKMENEILAPKDGTVAQVVVQKGSHVETGSPLIVL	-0.429
HMESGFEAVREVARHGSFANAAKALGVSGPAVSRQVKSLEERLGLVFFHRTTRMVTLTEAGQQLVDTLD	-0.211
HMQQEPNFYIVDGNTNQIVDRYYAPDSNVAHQYLGQWRQQHDPQETGNYRYGRLSSETEERYRNLAA	0.188
HMDNNFIQSLYPIAIGISKNQLDPWDLINGWVEYYLKNKEKYINHPNLKAVAVLKMKGLLIDHFRKS	-1.96
HMEEAQWEFKWENTDSAEIHGPHSSSEMLKWQENSFFAKGVYVRKVGGDTTDFTDGKRIDFDLY	-1.69
HMFERIYVFSRDGDIIELPKGSTVLDFAYHVHTHVGNRAQAARVNKRYVPLTYQLKTGEQVEIIIS	-1.05
HMTIRPEDVELVPAEDGYMQGDVVSNIFKGVHYELEVKANGYDWMVHTTKYVEVGSHVGIKVIPFNIQV	0.22
HMGLWWTEAERELVKTTIEQLYKDTNIAEPVDSKNLRASIPALKAMRTGLSAENQARVDTLLGALQV	-0.915
HMLPERIQTIVALIGHGRAMDLVREFGGQEIKFPAQEGNDTWAALVEVIGEAATRKLAAVFGGGQAPPVYI	-0.593
HMIVAHEINRHLGESDQPVEIPDNRREGAVAELLKTFNNDDAFREMDDGKYEVALDGEKVREAARSLLA	-0.0196
HMKEEDLPREYTDILGNSVHERLNIMIHDIIEHSQDKPEVAMSPEREEAMHGLRRWMFDHVYH	-0.307

Sequence	soluble fraction (log2)
HMEIITIVSDINGKRIDAWLSEKLENYSRSFIQKLIQNENVKVNNNIVKANYKLKNGDAVAVSIPEPV	-0.261
HMSEITQTLSMIGKEVTLEIPDEKDKTKTTEVKGIVTEASFKDGTGKVKVNGEYYSIAYITSIRDT	-0.545
HMARKTIFHSLLGELEQRIGRLPAGTILPAEQALADEYGVSKPTLRRALAELAEHGLITKENGIGSVVI	≥ 0.43
HMGGGRELGLDPETGKKISVRLGKFGPFVQLGESGEEDKPVFANLGKNQSIATLSLEEAIALLARPK	0.189
HMETKVIVPKVTGMNSKSAINYLSARGLKYKAVPADSGKSFHVVDQYPKSGTKVSPHSTVYLYS	0.386
HMLDYITLSPQELGKLLSAGNGDAAMVYLYMKATGDVTLKQAETQLGMTNQNLAWAESLLKRLGLMD	-0.501
HMPLLSEWDAALEELWAKLGDVPMDPETERMDAPFLGFPAGTPREDIWHWFDERHSKGVAHLLYG	-1.78
HMKNTFGLTEREMEVLALIVDGLSNPEIAEKLFITRATAKAHVHSILQKLYVDDRTQAAVTAMREGL	-1.14
HMKAPPLTDREKEILRWVAAGLQNKEIAHKLGISLATVRNHIHNILEKLDVHSKLEAVSLAFRQGWVS	-0.133
HMSMFSEILRTLRKAKGLTQRELAGHLGVTQQMVAKWEKGQSTPGPDQLTRMAELLEVSTDTLLGR	-0.104
HMTMQTAEQESRLEQKLIDLSVGIDRFEGYSRPHGQLIASIADRIGTRLGMAAHDRFYMQQAAL	-0.0547
HMIVKQPDIRKQELLDIGVRLYFEAGEKGVSIQQVVKQAGVATGLFYYYFSSKDAFLDEALNDYID	-0.0638
HMQYTTDEVRERVLSVLNQLLLRWIVREGKDMFNIQANAVEISEGIKGELNTELEKIGLAATGFQIDSV	-0.678
HMFPNQLLISRLSNQLSASERFAAVSSIAQLKNIDYDVLHVLVHTMNSDPNSNVRLAALEALSR	-0.313
HMYFNTADLKADSIHYGSTEQSVIKILGEPEYRETFVDNNVSYELFSYKGNLLLSFVENSLVSL	-0.0269
HMGTHSAEQVRAAIRAIVAAEDAANPLSDARITELLAMRGIAAARRTVMKYREQLGIPSSAKRRR	≥ 0.43
HMPELSITDADIIVAGGRGMGSAENFGLIRELAGLLGAAVGASRVVVDAEWVDQKHLIGQTGK	-0.507
HMEPREEFTFADLRANGLNGTAAAAGRRAALGAALGIGYGNAKQFLRRLNHYGVTRSEWEAALADLDE	-0.0963
HMDSVPEEQLRQLALDKAKEVKRWGQPVELAKMNAHDRRIIHINLQDDPEIETRSEGEGALKSVIISLKK	0.135
HMRNMTDYLTIVRAVYGGLSQRQAATTYHVSRNTVSLLIRHAKNQGWLTVEDLSRADAAAFSPA	-0.0738
HMNFTETENRIYEEILKNVKQHKKKTVVQIAEKVDVAPSYVIKVAKKLGYSGLNEMWYSLSGIY	-0.0318
HMKTLELIAAIRKRIAGGYAGADGRLPNIGEIAKDFSVSPMTAQKAVRALVEAGVLTSTRRKGVFLKQPAS	0.354
HMPPGQIVNEALQRAGNSTPTGTAISAQDDIKLYTSALAELATQGDTSSASVAKLREALQTAQVAFYNAV	0.0927
HMDYQYILVDVKDRIATVTINRPEYSNAFARESYYEIADAMNTLGARDDVGVIVITGAGKHFSAGGDIKRF	-0.652
HMVVVMEKNASSAEIEQVQERLRQAGFKIHLSQGVERTIIGAIGDRSQVDLGFLEALPGVEKVVPIMK	0.248
HMNEDDQLLKVLLAEPLRLEELYNLDLKPQGPYNLQTWIMVHLTELERDGLIARFPDGRYGPAR	-1.57
HMVDDTGLPTVLISDGRLLERNLHRLHLDHTWLQRRLEENNIPSIQSLFLLTVDKQHQLYFLKK	-0.277

From the domain aggregation screens of Martell et al. (2025)
